The nature of data set [1]: achievable concentration for crystal screens. The note with it: glycan lost; control: undigested HEK293S MGAT1−/− material.
Data set [2] is described as follows: X-ray diffraction of CSF-1 complex crystals. The conditions noted are these: glycan changed form; control: HEK293T-expressed receptor.
Another data set can be described thus: initial expression tests. The conditions noted are these: glycan lost; control: other CSF-1RD1–D3 constructs.
A short description of data set [3]: achievable concentration of CSF-1 complex. The note with it: glycan changed form; control: wild-type (HEK293T) material.
A short description of a further data set: X-ray diffraction. The conditions noted are these: glycan changed form; control: HEK293T-expressed protein.
Data set [4] concerns the molecule itself. The data set can be described thus: crystal structure; DSCAM_(Ig7–Ig9) from HEK293 GlycoDelete cells; space group C2, one molecule in the asymmetric unit, oligomer by crystallographic symmetry; 0.2 M calcium acetate, 10% PEG 8000, 0.1 M HEPES pH 7.5, 3% glycerol; 1.85 Å.
Data set [5] deals with the molecule itself. The data set is described as follows: SEC; size-exclusion chromatography of IMAC-purified murine IL-12B from GD cells. In general terms: In gel filtration, larger molecules generally elute earlier.

For “colony-stimulating factor 1 receptor (CSF-1RD1–D3): EndoH digestion”, the “other: solubility” value in data set [1] was “decreases”.

Turning to “colony-stimulating factor 1 receptor (CSF-1RD1–D3): HEK293S MGAT1−/− expression”, the “other: crystal diffraction quality, other: diffraction limit” value in data set [2] is given as “increases, 4.5 vs did not diffract”.

As for “colony-stimulating factor 1 receptor (CSF-1RD1–D3): N240Q”, in “initial expression tests”, the expression_or_secretion result is given as “no change”.

For “colony-stimulating factor 1 receptor (CSF-1RD1–D3): GlycoDelete expression”, in data set [3], the “other: solubility” value is “no change”.

For the molecule “Down syndrome cell-adhesion molecule (DSCAMIg7–Ig9): GlycoDelete expression”, the “other: crystal diffraction quality, other: diffraction limit” value in “X-ray diffraction” is listed as “increases, 1.85 vs ∼8”.

Take “colony-stimulating factor 1 receptor (CSF-1RD1–D3): N153Q”: the expression_or_secretion result in the data set “initial expression tests” is given as “no change”.

On to “colony-stimulating factor 1 receptor (CSF-1RD1–D3): N275Q”, for which the expression_or_secretion entry in “initial expression tests” is on record as “no change”.

As to “colony-stimulating factor 1 receptor (CSF-1RD1–D3): N73Q”, in “initial expression tests”, the expression_or_secretion result is listed as “abolishes”.

B1: human Down syndrome cell-adhesion molecule fragment DSCAM_(Ig7–Ig9) (domain or fragment)
chain: TVPPFIQPFEFPRFSIGQRVFIPCVVVSGDLPITITWQKDGRPIPGSLGVTIDNIDFTSSLRISNLSLMHNGNYTCIARNEAAAVEHQSQLIVRVPPKFVVQPRDQDGIYGKAVILNCSAEGYPVPTIVWKFSKGAGVPQFQPIALNGRIQVLSNGSLLIKHVVEEDSGYYLCKVSNDVGADVSKSMYLTVKIPAMITSYPNTTLATQGQKKEMSCTAHGEKPIIVRWEKEDRIINPEMARYLVSTKEVGEEVISTLQILPTVREDSGFFSCHAINSYGEDRGIIQLTVQEE
modifications: GlycoDelete N-glycan stubs at Asn666, Asn710, Asn748 and Asn795 (full Neu5AcGalGlcNAc at Asn795)
notes: one-residue cloning scar (Thr594) at the N-terminus; Down syndrome cell-adhesion molecule (DSCAM), human, UniProt O60469, residues 595–884 (Val595–Glu884), immunoglobulin domains Ig7, Ig8 and Ig9; one-residue cloning scar (Glu885) before the C-terminal 6×His tag; Expressed from pXLG behind a 34-residue signal peptide of pregnancy-specific glycoprotein 1 (UniProt P11464); The signal peptide is not …
As to B1, in data set [4], the binding result was “binds”.

B2: murine IL-12B (natural protein, UniProt P43432 23-335, looked up)
chain: MWELEKDVYVVEVDWTPDAPGETVNLTCDTPEEDDITWTSDQRHGVIGSGKTLTITVKEFLDAGQYTCHKGGETLSHSHLLLHKKENGIWSTEILKNFKNKTFLKCEAPNYSGRFTCSWLVQRNMDLKFNIKSSSSSPDSRAVTCGMASLSAEKVTLDQRDYEKYSVSCQEDVTCPTAEETLPIELALEARQQNKYENYSTSFFIRDIIKPDPPKNLQMKPLKNSQVEVSWEYPDSWSTPHSYFSLKFFVRIQRKKEKMKETEEGCNQKGAFLVEKTSTEVQCKGGNVCVQAQDRYYNSSCSKWACVPCRVRS
modifications: immature N-linked glycan on Asn220 (modelled as Man4GlcNAc2)
notes: signal peptide in the construct; The dimeric SEC fractions (disulfide-linked homodimer through Cys197) were pooled, polished on Mono Q and crystallised; also called IL-12p40 (monomer); IL-12p80 (homodimer); source: HEK293 GlycoDelete cells, transfected, secreted; purified (IMAC, SEC, Mono Q anion exchange)
The stoichiometry N is a count of units in the complex or per binding partner. Turning to B2, the “stoichiometry N” value in data set [5] was 2.
